Measurements published in IntAct's records for PubMed 29039417.

B1: BBSome complex member BBS5 (Homo sapiens), Q8N3I7 (parent)
chain: MSVLDALWEDRDVRFDLSAQQMKTRPGEVLIDCLDSIEDTKGNNGDRGRLLVTNLRILWHSLALSRVNVSVGYNCILNITTRTANSKLRGQTEALYILTKCNSTRFEFIFTNLVPGSPRLFTSVMAVHRAYETSKMYRDFKLRSALIQNKQLRLLPQEHVYDKINGVWNLSSDQGNLGTFFITNVRIVWHANMNDSFNVSIPYLQIRSIKIRDSKFGLALVIESSQQSGGYVLGFKIDPVEKLQESVKEINSLHKVYSASPIFGVDYEMEEKPQPLEALTVEQIQDDVEIDSDGHTDAFVAYFADGNKQQDREPVFSEELGLAIEKLKDGFTLQGLWEVMS
partner: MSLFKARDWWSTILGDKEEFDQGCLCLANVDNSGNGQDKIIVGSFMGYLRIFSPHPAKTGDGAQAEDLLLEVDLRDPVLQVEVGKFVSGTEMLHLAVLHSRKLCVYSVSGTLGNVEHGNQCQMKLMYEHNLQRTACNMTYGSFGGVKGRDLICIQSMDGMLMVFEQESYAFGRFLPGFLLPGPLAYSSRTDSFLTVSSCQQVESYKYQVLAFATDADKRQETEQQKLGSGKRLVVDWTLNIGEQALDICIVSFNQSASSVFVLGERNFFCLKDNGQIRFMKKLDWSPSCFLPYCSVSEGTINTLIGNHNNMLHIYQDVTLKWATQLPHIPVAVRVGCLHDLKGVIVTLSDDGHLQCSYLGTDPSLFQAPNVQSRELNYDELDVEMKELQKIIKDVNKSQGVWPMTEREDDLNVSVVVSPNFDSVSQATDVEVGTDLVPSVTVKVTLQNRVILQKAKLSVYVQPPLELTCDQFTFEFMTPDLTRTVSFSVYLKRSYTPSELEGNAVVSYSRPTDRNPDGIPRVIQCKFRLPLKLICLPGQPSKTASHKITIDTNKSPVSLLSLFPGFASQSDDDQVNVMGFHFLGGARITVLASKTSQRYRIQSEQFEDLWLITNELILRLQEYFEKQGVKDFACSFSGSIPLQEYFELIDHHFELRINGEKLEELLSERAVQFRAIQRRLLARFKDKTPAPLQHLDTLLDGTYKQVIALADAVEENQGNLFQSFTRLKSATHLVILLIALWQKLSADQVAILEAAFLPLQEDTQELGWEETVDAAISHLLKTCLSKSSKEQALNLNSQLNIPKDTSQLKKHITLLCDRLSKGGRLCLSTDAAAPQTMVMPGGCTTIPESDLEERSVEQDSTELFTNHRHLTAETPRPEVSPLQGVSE

Variants of: B1
Settings: with pthb1_human BBS9, Q3SYG4

Variant | effect of a mutation on the interaction
P118E | with no effect
R119A | with no effect
R119K | with no effect
L120E | with no effect
F121A | with no effect
F121E | with no effect
F121K | with no effect
T122K | with no effect
S123A | with no effect
S123E | with no effect
S123K | with no effect
V124A | with no effect
M125A | with no effect
M125K | with no effect
A126E | with no effect
A126K | with no effect
V127A | with no effect
V127E | with no effect
V127K | with no effect
H128A | with no effect
H128E | with no effect
R129K | with no effect
A130E | with no effect
Y131A | with no effect
Y131E | with no effect
Y131K | with no effect
E132A | with no effect

Variant | effect of a mutation on the interaction
T133I | disrupting interaction strength
T133K | with no effect
S134K | with no effect
M136K | with no effect
Y137A | with no effect
Y137E | with no effect
R138K | with no effect
D139E | with no effect
F140E | with no effect
F140K | with no effect
L142A | with no effect
L142E | with no effect
L142K | with no effect
R143E | with no effect
R143K | with no effect
S144A | with no effect
S144K | with no effect
A145E | with no effect
A145K | with no effect
L146A | with no effect
I147A | with no effect
I147E | with no effect
I147K | with no effect
Q148A | with no effect
Q148K | with no effect
N149E | with no effect
N149K | with no effect

The next lines start with the values.

effect of a mutation on the interaction | Variant
with no effect | P118K
with no effect | R119E
with no effect | L120A
with no effect | L120K
with no effect | T122A
with no effect | T122E
disrupting interaction strength | S123F
with no effect | V124E
disrupting interaction strength | V124K
with no effect | M125E
with no effect | H128K
with no effect | R129A
with no effect | R129E
disrupting interaction strength | A130K
with no effect | E132K
with no effect | T133A
with no effect | T133E
with no effect | S134A
with no effect | S134E

effect of a mutation on the interaction | Variant
with no effect | K135A
with no effect | K135E
with no effect | M136A
with no effect | M136E
with no effect | Y137K
with no effect | R138A
with no effect | R138E
with no effect | D139A
with no effect | D139K
with no effect | F140A
with no effect | K141A
with no effect | K141E
with no effect | R143A
with no effect | S144E
disrupting interaction strength | A145T
with no effect | L146E
with no effect | L146K
with no effect | Q148E
with no effect | N149A
